Tests used:
MHC II on Raji cells [1] = experiment: FACS, Raji cells; 7.4 ug/ml
MHC II on Raji cells [2] = experiment: FACS, Raji cells; 0.8 ug/ml
MHC II on Raji cells [3] = experiment: FACS, Raji cells; 200 ug/ml
MHC II on Raji cells [4] = experiment: FACS, Raji cells; 0 ug/ml
MHC II on Raji cells [5] = experiment: FACS, Raji cells; 2.5 ug/ml
MHC II on Raji cells [6] = experiment: FACS, Raji cells; 0.1 ug/ml
MHC II on Raji cells [7] = experiment: FACS, Raji cells; 0.3 ug/ml
MHC II on Raji cells [8] = experiment: FACS, Raji cells; 66.7 ug/ml
MHC II on Raji cells [9] = experiment: FACS, Raji cells; 22.2 ug/ml
[10] = target: hFc tagged monkey LAG-3 protein (cLAG-3-hFc protein) (monkey; human); experiment: ELISA, cLAG-3-hFc coated; 0.6667 nM
hFc tagged monkey LAG-3 protein (cLAG-3-hFc protein) (monkey; human), sequence (chain, as listed by the source): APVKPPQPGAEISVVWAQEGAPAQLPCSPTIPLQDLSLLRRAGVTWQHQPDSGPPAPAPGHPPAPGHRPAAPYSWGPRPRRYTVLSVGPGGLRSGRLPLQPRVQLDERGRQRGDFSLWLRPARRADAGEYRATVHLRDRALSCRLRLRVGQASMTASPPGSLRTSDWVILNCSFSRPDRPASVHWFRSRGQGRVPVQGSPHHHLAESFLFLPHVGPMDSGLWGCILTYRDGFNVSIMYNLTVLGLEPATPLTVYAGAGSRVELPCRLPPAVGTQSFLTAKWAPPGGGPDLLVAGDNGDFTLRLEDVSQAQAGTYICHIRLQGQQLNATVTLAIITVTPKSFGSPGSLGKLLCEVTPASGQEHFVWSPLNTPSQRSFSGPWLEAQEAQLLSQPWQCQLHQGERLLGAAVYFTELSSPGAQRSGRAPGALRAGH

[11] = target: mouse LAG-3 protein with hFc tag (mLAG-3-hFc protein) (mouse; human) (UniProt Q61790); experiment: ELISA, mLAG-3-hFc coated; 0.6667 nM
mouse LAG-3 protein with hFc tag (mLAG-3-hFc protein) (mouse; human), sequence (Q61790 24-442): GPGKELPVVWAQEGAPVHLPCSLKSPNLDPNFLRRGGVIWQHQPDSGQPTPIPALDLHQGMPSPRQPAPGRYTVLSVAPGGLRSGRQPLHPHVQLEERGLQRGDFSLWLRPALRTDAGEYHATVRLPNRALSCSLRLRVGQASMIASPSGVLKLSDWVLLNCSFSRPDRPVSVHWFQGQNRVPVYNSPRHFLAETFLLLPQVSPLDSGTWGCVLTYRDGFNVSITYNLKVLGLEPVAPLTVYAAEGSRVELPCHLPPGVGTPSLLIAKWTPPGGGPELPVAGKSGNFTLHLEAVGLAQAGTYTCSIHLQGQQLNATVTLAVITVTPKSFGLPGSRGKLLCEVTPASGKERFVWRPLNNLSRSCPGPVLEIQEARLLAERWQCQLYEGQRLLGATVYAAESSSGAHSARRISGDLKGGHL

[12] = target: mouse LAG-3 protein with hFc tag (mLAG-3-hFc protein) (mouse; human) (UniProt Q61790); experiment: ELISA, mLAG-3-hFc coated; 0.0001 nM
[13] = target: mouse LAG-3 protein with hFc tag (mLAG-3-hFc protein) (mouse; human) (UniProt Q61790); experiment: ELISA, mLAG-3-hFc coated; 66.6670 nM
[14] = target: human LAG-3 protein with hFc tag (hLAG-3-hFc protein) (human) (UniProt P18627); experiment: ELISA, hLAG-3-hFc coated; 0.0007 nM
human LAG-3 protein with hFc tag (hLAG-3-hFc protein) (human), sequence (P18627 23-450): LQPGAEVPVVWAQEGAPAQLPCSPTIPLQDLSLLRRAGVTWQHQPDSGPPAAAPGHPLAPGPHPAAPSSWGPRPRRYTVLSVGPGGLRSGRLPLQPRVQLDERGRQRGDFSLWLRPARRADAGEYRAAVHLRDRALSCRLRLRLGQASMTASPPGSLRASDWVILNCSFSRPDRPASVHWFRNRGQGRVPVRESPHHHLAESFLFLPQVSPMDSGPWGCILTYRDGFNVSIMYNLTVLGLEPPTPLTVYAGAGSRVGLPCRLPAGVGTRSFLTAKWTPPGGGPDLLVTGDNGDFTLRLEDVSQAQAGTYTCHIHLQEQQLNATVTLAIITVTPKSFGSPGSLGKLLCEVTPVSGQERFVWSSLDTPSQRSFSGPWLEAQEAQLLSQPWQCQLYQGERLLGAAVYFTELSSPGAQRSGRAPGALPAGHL

[15] = target: hFc tagged monkey LAG-3 protein (cLAG-3-hFc protein) (monkey; human); experiment: ELISA, cLAG-3-hFc coated; 66.6670 nM
[16] = target: human LAG-3-hFc protein (human) (UniProt P18627); experiment: competition FACS: inhibition of LAG-3-hFc binding to MHC II on Raji cells, antibody 66.667 nM
human LAG-3-hFc protein (human), sequence (P18627 23-450): as above

[17] = target: human LAG-3 protein with hFc tag (hLAG-3-hFc protein) (human) (UniProt P18627); experiment: ELISA, hLAG-3-hFc coated; 6.6667 nM
[18] = target: human LAG-3 protein with hFc tag (hLAG-3-hFc protein) (human) (UniProt P18627); experiment: ELISA, hLAG-3-hFc coated; 0.6667 nM
[19] = target: human LAG-3 protein (full length, on cells) (human) (UniProt P18627); experiment: FACS on HEK293-hLAG-3 cells, antibody 0.32 nM
human LAG-3 protein (full length, on cells) (human), sequence (P18627 23-525 limits assumed): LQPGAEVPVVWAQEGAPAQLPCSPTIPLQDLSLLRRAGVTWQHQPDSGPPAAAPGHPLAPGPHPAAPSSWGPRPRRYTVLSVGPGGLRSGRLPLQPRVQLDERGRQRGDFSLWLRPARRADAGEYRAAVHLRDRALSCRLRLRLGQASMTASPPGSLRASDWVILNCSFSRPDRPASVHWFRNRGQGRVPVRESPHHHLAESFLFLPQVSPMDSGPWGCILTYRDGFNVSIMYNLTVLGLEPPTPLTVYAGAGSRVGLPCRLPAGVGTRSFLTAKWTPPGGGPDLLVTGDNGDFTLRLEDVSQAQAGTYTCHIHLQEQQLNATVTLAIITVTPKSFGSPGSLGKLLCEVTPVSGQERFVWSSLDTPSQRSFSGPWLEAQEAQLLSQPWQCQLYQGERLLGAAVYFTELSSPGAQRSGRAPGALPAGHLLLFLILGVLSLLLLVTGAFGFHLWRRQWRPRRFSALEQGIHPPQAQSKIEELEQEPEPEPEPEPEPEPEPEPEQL

[20] = target: human LAG-3-hFc protein (human) (UniProt P18627); experiment: competition FACS: inhibition of LAG-3-hFc binding to MHC II on Raji cells, antibody 7.407 nM
[21] = target: human LAG-3 protein with hFc tag (hLAG-3-hFc protein) (human) (UniProt P18627); experiment: ELISA, hLAG-3-hFc coated; 0.0001 nM
[22] = target: human LAG-3 protein with hFc tag (hLAG-3-hFc protein) (human) (UniProt P18627); experiment: ELISA, hLAG-3-hFc coated; 66.6670 nM
[23] = target: human LAG-3-hFc protein (human) (UniProt P18627); experiment: competition FACS: inhibition of LAG-3-hFc binding to MHC II on Raji cells, antibody 0.274 nM
[24] = target: mouse LAG-3 protein with hFc tag (mLAG-3-hFc protein) (mouse; human) (UniProt Q61790); experiment: ELISA, mLAG-3-hFc coated; 0.0667 nM
[25] = target: human LAG-3 protein with hFc tag (hLAG-3-hFc protein) (human) (UniProt P18627); experiment: ELISA, hLAG-3-hFc coated; 0.0667 nM
[26] = target: human LAG-3-hFc protein (human) (UniProt P18627); experiment: competition FACS: inhibition of LAG-3-hFc binding to MHC II on Raji cells, antibody 2.469 nM
[27] = target: hFc tagged monkey LAG-3 protein (cLAG-3-hFc protein) (monkey; human); experiment: ELISA, cLAG-3-hFc coated; 0.0007 nM
[28] = target: human LAG-3 protein (full length, on cells) (human) (UniProt P18627); experiment: cell-based or functional assay
[29] = target: human LAG-3 protein (full length, on cells) (human) (UniProt P18627); experiment: FACS on HEK293-hLAG-3 cells, antibody 0.013 nM
[30] = target: human LAG-3 protein with hFc tag (hLAG-3-hFc protein) (human) (UniProt P18627); experiment: ELISA, hLAG-3-hFc coated; 0.0000 nM
[31] = target: hFc tagged monkey LAG-3 protein (cLAG-3-hFc protein) (monkey; human); experiment: ELISA, cLAG-3-hFc coated; 0.0000 nM
[32] = target: mouse LAG-3 protein with hFc tag (mLAG-3-hFc protein) (mouse; human) (UniProt Q61790); experiment: ELISA, mLAG-3-hFc coated; 6.6667 nM
[33] = target: human LAG-3-hFc protein (human) (UniProt P18627); experiment: competition FACS: inhibition of LAG-3-hFc binding to MHC II on Raji cells, antibody 0.000 nM
[34] = target: hFc tagged monkey LAG-3 protein (cLAG-3-hFc protein) (monkey; human); experiment: ELISA, cLAG-3-hFc coated; 0.0067 nM
[35] = target: human LAG-3-hFc protein (human) (UniProt P18627); experiment: competition FACS: inhibition of LAG-3-hFc binding to MHC II on Raji cells, antibody 200.000 nM
[36] = target: human LAG-3 protein (full length, on cells) (human) (UniProt P18627); experiment: FACS on HEK293-hLAG-3 cells, antibody 0 nM (background)
[37] = target: mouse LAG-3 protein with hFc tag (mLAG-3-hFc protein) (mouse; human) (UniProt Q61790); experiment: ELISA, mLAG-3-hFc coated; 0.0007 nM
[38] = target: human LAG-3 protein (full length, on cells) (human) (UniProt P18627); experiment: FACS on HEK293-hLAG-3 cells, antibody 8 nM
[39] = target: hFc tagged monkey LAG-3 protein (cLAG-3-hFc protein) (monkey; human); experiment: ELISA, cLAG-3-hFc coated; 0.0667 nM
[40] = target: hFc tagged monkey LAG-3 protein (cLAG-3-hFc protein) (monkey; human); experiment: ELISA, cLAG-3-hFc coated; 0.0001 nM
[41] = target: human LAG-3 protein (full length, on cells) (human) (UniProt P18627); experiment: FACS on HEK293-hLAG-3 cells, antibody 1.6 nM
[42] = target: human LAG-3 protein with hFc tag (hLAG-3-hFc protein) (human) (UniProt P18627); experiment: ELISA, hLAG-3-hFc coated; 0.0067 nM
[43] = target: human LAG-3-hFc protein (human) (UniProt P18627); experiment: competition FACS: inhibition of LAG-3-hFc binding to MHC II on Raji cells, antibody 0.823 nM
[44] = target: human LAG-3-hFc protein (human) (UniProt P18627); experiment: competition FACS: inhibition of LAG-3-hFc binding to MHC II on Raji cells, antibody 22.222 nM
[45] = target: mouse LAG-3 protein with hFc tag (mLAG-3-hFc protein) (mouse; human) (UniProt Q61790); experiment: ELISA, mLAG-3-hFc coated; 0.0067 nM
[46] = target: human LAG-3 protein (full length, on cells) (human) (UniProt P18627); experiment: FACS on HEK293-hLAG-3 cells, antibody 0.064 nM
[47] = target: hFc tagged monkey LAG-3 protein (cLAG-3-hFc protein) (monkey; human); experiment: ELISA, cLAG-3-hFc coated; 6.6667 nM

## hFc (control protein of Table 1)
MHC II on Raji cells [1]
  Mean fluorescence value: 18 MFI
MHC II on Raji cells [2]
  Mean fluorescence value: 12 MFI
MHC II on Raji cells [3]
  Mean fluorescence value: 21 MFI
MHC II on Raji cells [4]
  Mean fluorescence value: 13 MFI
MHC II on Raji cells [5]
  Mean fluorescence value: 14 MFI
MHC II on Raji cells [6]
  Mean fluorescence value: 13 MFI
MHC II on Raji cells [7]
  Mean fluorescence value: 11 MFI
MHC II on Raji cells [8]
  Mean fluorescence value: 28 MFI
MHC II on Raji cells [9]
  Mean fluorescence value: 20 MFI

## hIgG control (human IgG) (antibody)
[10]
  OD450: 0.18 OD450
[11]
  OD450: 0.09 OD450
[12]
  OD450: 0.08 OD450
[13]
  OD450: 0.56 OD450
[14]
  OD450: 0.1 OD450
[15]
  OD450: 1.16 OD450
[16]
  Inhibition rate (%): 4%
[17]
  OD450: 0.29 OD450
[18]
  OD450: 0.14 OD450
[19]
  Mean fluorescence intensity: 3 MFI
[20]
  Inhibition rate (%): 1%
[21]
  OD450: 0.1 OD450
[22]
  OD450: 1.17 OD450
[23]
  Inhibition rate (%): 0%
[24]
  OD450: 0.08 OD450
[25]
  OD450: 0.11 OD450
[26]
  Inhibition rate (%): 3%
[27]
  OD450: 0.13 OD450
[28]
  IL-2 production, pg/ml; antibody 0.0032 ug/ml, N = 1: 144 pg/mL
  IL-2 production, pg/ml; antibody 0.0032 ug/ml, N = 2: 123 pg/mL
  IL-2 production, pg/ml; antibody 0.016 ug/ml, N = 1: 141 pg/mL
  IL-2 production, pg/ml; antibody 0.016 ug/ml, N = 2: 143 pg/mL
  IL-2 production, pg/ml; antibody 0.08 ug/ml, N = 1: 157 pg/mL
  IL-2 production, pg/ml; antibody 0.08 ug/ml, N = 2: 145 pg/mL
  IL-2 production, pg/ml; antibody 0.4 ug/ml, N = 1: 159 pg/mL
  IL-2 production, pg/ml; antibody 0.4 ug/ml, N = 2: 179 pg/mL
  IL-2 production, pg/ml; antibody 2 ug/ml, N = 1: 164 pg/mL
  IL-2 production, pg/ml; antibody 2 ug/ml, N = 2: 162 pg/mL
  IL-2 production, pg/ml; antibody 10 ug/ml, N = 1: 142 pg/mL
  IL-2 production, pg/ml; antibody 10 ug/ml, N = 2: 168 pg/mL
[29]
  Mean fluorescence intensity: 3 MFI
[30]
  OD450: 0.11 OD450
[31]
  OD450: 0.13 OD450
[32]
  OD450: 0.18 OD450
[33]
  Inhibition rate (%): 0%
[34]
  OD450: 0.19 OD450
[35]
  Inhibition rate (%): 1%
[36]
  Mean fluorescence intensity: 3 MFI
[37]
  OD450: 0.07 OD450
[38]
  Mean fluorescence intensity: 3 MFI
[39]
  OD450: 0.14 OD450
[40]
  OD450: 0.14 OD450
[41]
  Mean fluorescence intensity: 3 MFI
[42]
  OD450: 0.13 OD450
[43]
  Inhibition rate (%): 2%
[44]
  Inhibition rate (%): 0%
[45]
  OD450: 0.08 OD450
[46]
  Mean fluorescence intensity: 3 MFI
[47]
  OD450: 0.29 OD450
